Experimental data reported in US8173771B2, “Humanin receptor or humanin-like polypeptide receptor” (Keio Univeristy, priority 2005, dated 2012).
Peptide text beside a SMILES is read from it.

How the values were obtained:
STAT3 = assay: Immunoblot of phosphotyrosine 705 of STAT3 in F11 cells; type: cell-based
Experimental: E) F11 cells were transfected with an indicated amount of pRNA-U6.1/Shuttle vector (empty), pRNA-U6.1/Shuttle-IL-6R siRNA, or pRNA-U6.1/Shuttle-LIFR siRNA. At 48 hrs after transfection, the cells were treated with 100 ng/ml IL-6, 100 ng/ml CNTF or 1 μM HNG at 37° for 15 min, and harvested. The results of immunoblot analysis using anti-phophoSTAT3 ([…]) antibody and anti-STAT3 antibody were shown in photos. A) F11 cells were added with an indicated amount of HN, HNG or HNA and harvested 15 min later for immunoblot analysis with antibodies recognizing phosphotyrosine 705 of STAT3 or STAT3. The results are shown in photos. B) F11 cells were transfected with 0.5 μg of pRNA-U1.6/Shuttle vector, pRNA-U6.1/Shuttle-WSX-1 siRNA, pRNA-U6.1/Shuttle-CNTF-R siRNA, both pRNA-U6.1/Shuttle-WSX-1 siRNA and pRNA-U6.1/Shuttle-CNTF-R siRNA (0.5 μg each), or pRNA-U6.1/Shuttle-FPR2 siRNA. The total amount of vectors was adjusted to be 1.0 μg by including a backbone vector. […] The results are shown in photos. Cell lysates (10-20 μg/lane) or pulled-down precipitates were subject to SDS-PAGE, and the proteins separated on the gel were transferred onto polyvinylidene difluoride membranes as described (Hashimoto et al, 2000). Visualization of the immunoreactive protein bands was performed by ECL (Amersham Pharmacia Biotech, Uppsala, Sweden).

IL-6 receptor = biological target: T1, IL-6 receptor (Rattus norvegicus, UniProt P22273); assay: In vitro pull-down assay with HN- or HNA-conjugated Sepharose 4B; type: binding; conditions: lysates of F11 cells overexpressing IL-6R
T1 construct: V6 (so in the source); probably V5); host or cells: F11 cells (lysate)
T1 sequence (P22273 20-462): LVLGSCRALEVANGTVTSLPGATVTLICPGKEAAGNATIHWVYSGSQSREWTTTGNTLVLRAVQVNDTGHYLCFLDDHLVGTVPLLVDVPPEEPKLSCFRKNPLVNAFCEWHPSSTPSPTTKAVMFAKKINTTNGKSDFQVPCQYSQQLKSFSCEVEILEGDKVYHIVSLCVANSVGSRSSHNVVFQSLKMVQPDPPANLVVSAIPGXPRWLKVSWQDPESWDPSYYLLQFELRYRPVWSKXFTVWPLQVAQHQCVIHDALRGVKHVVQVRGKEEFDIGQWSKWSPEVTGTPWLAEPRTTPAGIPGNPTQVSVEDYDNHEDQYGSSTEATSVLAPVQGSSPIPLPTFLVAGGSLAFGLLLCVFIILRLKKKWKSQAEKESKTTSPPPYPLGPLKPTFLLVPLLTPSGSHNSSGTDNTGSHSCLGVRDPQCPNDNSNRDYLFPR
Excerpt: (§1) C) The photos show the results of in vitro pull down assay using HN- or HNA-conjugated Sepharose 4B bead. WSX-1, CNTF-R, and […] were over-expressed in F11 cells and the pull down assay was made using the above 4B bead. Immunoblot analysis was done using PO4 antibody against Humanin (lower panes). HN or HNA comprised in the above Sepharose 4B bead was compared with synthesized HN peptide (50 pmol) as a positive control.
(§2) F11 cells (7×10^4/well in 6-well plates) were transfected with the plasmids encoding mycHis-WSX-1, V5-CNTF-R or rat IL-6R (V6 tagged). At 48 hrs after transfection, the cells were harvested for pull-down assays with HN or HNA-conjugated Sepharose 4B. For conjugation of […] or HNA with Sepharose 4B, 3 ml of CNBr-activated Sepharose 4B was incubated with 0.5 mg of HN or HNA in a coupling buffer (0.1M NaHCO3 0.5M NaCl, pH8.3) overnight at 4° C. The beads were then reacted with a blocking buffer (0.2M glycine, pH 8.0) for 2 hrs at a room temperature, washed with the coupling buffer and stored at 4° C. for use in pull-down assay. For each pull-down assay, 20 μl of 1:1 slurry of Sepharose was used for 100 μl of the cell lysate.

WSX-1 = biological target: T2, WSX-1 (Homo sapiens, UniProt Q6UWB1); assay: as above; type: binding; conditions: lysates of F11 cells overexpressing WSX-1
T2 construct: His; expressed in transfected cells; host or cells: F11 cells (lysate)
T2 sequence (Q6UWB1 33-636): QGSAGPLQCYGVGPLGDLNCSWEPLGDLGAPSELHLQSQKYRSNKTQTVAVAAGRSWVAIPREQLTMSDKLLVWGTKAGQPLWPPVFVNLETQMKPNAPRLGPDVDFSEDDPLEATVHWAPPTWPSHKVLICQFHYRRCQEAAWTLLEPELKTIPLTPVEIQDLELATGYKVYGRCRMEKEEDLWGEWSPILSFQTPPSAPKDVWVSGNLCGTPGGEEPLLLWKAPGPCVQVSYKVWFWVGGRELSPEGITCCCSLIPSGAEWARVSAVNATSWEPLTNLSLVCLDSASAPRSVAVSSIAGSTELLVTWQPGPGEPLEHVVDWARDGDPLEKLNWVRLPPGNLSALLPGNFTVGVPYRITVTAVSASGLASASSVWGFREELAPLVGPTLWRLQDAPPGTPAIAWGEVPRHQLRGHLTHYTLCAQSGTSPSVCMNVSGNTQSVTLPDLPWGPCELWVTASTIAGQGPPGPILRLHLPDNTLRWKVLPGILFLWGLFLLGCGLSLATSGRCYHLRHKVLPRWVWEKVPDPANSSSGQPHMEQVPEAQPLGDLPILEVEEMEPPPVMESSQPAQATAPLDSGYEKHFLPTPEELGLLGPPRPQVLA
Excerpt: as §1, §2

CNTF receptor = biological target: T3, CNTF receptor (Homo sapiens, UniProt P26992); assay: as above; type: binding; conditions: lysates of F11 cells overexpressing CNTF-R
T3 construct: V5 (C); host or cells: F11 cells (lysate)
T3 sequence (P26992 23-342): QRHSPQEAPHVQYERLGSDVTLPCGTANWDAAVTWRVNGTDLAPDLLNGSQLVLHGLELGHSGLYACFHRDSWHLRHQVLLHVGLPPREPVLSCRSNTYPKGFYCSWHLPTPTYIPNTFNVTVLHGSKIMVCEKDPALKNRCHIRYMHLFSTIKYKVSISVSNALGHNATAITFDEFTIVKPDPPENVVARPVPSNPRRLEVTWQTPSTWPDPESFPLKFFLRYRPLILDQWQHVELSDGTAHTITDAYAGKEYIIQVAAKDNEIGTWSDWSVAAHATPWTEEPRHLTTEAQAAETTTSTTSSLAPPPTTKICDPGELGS
Excerpt: as §1, §2

Molecule | phosphorylation of tyrosine 705 of STAT3 (STAT3; F11 cells, 15 min) | phosphorylation of tyrosine 705 of STAT3 (STAT3; decrease of expression of endogenous CNTF-R or WSX-1 by siRNA) | binding in pull-down to IL-6 receptor (IL-6 receptor) | binding in pull-down to WSX-1 (WSX-1) | binding in pull-down to CNTF receptor (CNTF receptor)
CC[C@H](C)[C@H](NC(=O)[C@H](CCC(=O)O)NC(=O)CNC(=O)[C@@H](NC(=O)[C@H](CC(C)C)NC(=O)[C@H](CC(C)C)NC(=O)[C@H](CC(C)C)NC(=O)[C@H](CC(C)C)NC(=O)[C@H](CS)NC(=O)[C@H](CO)NC(=O)[C@H](Cc1ccccc1)NC(=O)CNC(=O)[C@H](CCCNC(=N)N)NC(=O)[C@@H]1CCCN1C(=O)[C@H](C)NC(=O)[C@@H](N)CCSC)[C@@H](C)O)C(=O)N[C@@H](CC(=O)O)C(=O)N[C@@H](CC(C)C)C(=O)N1CCC[C@H]1C(=O)N[C@H](C(=O)N[C@@H](CCCCN)C(=O)N[C@@H](CCCNC(=N)N)C(=O)N[C@@H](CCCNC(=N)N)C(=O)N[C@@H](C)C(=O)O)C(C)C [HNG, S14 G-Humanin] (H-MAPRGFSCLLLLTGEIDLPVKRRA-OH; N-terminus and C-terminus assumed) | increased | almost completely inhibited | – | – | –
C8A-Humanin (MAPRGFSALLLLTSEIDLPVKRRA) [HNA] | – | – | did not bind | did not bind | did not bind
